Results from PMC3446948, “Protection against Th17 Cells Differentiation by an Interleukin-23 Receptor Cytokine-Binding Homology Region” (PLoS ONE, 2012).

How the values were obtained:
Human IL-23 = target: T1, Human IL-23 (human, UniProt Q9NPF7 20-189; P29460 23-328); assay: ELISA; direct binding ELISA: 10 ng/well human IL-23 coated, various concentrations of IL23R-CHR added, bound IL23R-CHR detected by HRP-labelled IL23R mAb; non-linear regression; settings: both partners purified
T1 construct: Interleukin-23 subunit alpha (p19), human; subunit of the bought heterodimeric cytokine; Interleukin-12 subunit beta (p40), human; also called human IL-23 complex; source: bought: R&D
T1 sequence (looked up) 1: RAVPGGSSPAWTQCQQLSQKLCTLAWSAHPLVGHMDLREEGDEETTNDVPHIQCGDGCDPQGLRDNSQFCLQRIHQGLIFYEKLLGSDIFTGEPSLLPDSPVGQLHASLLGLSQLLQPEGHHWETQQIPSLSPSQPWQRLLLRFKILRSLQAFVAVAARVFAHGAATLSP
T1 sequence (looked up) 2: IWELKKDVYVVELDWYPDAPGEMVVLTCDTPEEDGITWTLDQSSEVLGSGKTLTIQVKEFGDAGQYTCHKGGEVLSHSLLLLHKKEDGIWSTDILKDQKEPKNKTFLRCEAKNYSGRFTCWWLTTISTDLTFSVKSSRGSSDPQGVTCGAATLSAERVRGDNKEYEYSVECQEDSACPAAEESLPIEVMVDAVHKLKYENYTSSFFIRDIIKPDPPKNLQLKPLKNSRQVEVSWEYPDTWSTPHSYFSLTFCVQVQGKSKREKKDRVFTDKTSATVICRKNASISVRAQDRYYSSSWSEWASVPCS

Mouse IL-23 (mouse) = Mouse IL-23 (mouse) (UniProt Q9EQ14)
Mouse IL-23 (mouse), sequence (Q9EQ14 22-196, chain 1 of 2): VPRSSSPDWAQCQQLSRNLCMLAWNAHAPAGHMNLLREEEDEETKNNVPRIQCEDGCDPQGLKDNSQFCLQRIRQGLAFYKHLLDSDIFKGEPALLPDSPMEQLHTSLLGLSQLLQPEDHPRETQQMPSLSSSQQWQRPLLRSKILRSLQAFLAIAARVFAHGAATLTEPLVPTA
Mouse IL-23 (mouse), sequence (P43432 23-335, chain 2 of 2, further chain): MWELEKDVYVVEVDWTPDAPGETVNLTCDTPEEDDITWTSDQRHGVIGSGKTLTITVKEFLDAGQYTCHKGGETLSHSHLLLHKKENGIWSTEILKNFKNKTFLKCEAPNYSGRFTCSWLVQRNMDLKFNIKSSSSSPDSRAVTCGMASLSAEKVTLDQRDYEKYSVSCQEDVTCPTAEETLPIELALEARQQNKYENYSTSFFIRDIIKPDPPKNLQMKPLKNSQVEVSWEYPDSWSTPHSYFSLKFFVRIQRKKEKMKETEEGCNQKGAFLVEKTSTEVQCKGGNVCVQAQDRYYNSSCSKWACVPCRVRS

IC50 (Human IL-23): 90 nM
percentage of IL-17a+ cells in mouse CD4+ T cells (flow cytometry) under Th17 polarisation with IL23R-CHR 0, 5 and 25 ug/ml, 72 h; the value given is that at 25 ug/ml (Mouse IL-23 (mouse)): 4.18%
B1: Human IL-23 receptor cytokine-binding homology region (IL23R-CHR, amino acid residues 124-313) (domain or fragment)
chain: PPDIPDEVTCVIYEYSGNMTCTWNAGKLTYIDTKYVVHVKSLETEEEQQYLTSSYINISTDSLQGGKKYLVWVQAANALGMEESKQLQIHLDDIVIPSAAVISRAETINATVPKTIIYWDSQTTIEKVSCEMRYKATTNQTWNVKEFDTNFTYVQQSEFYLEPNIKYVFQVRCQETGKRYWQPWSSLFFH
modifications: Expressed in E. coli (non-glycosylated). The Trx-His6 tag was removed by enterokinase. A short vector/primer-derived N-terminal remnant remains and is omitted: printed as 'A', while the NcoI primer …
